Results on four molecules are retold here after publication PMC10470539, “Characterization of a novel aromatic substrate-processing microcompartment in Actinobacteria” (mBio, 2023).

Series [1] concerns the target ARO AldDh (ARO 2-aminomuconic-6-semialdehyde dehydrogenase homolog) from Micromonospora rosaria (Micromonospora rosaria). Put plainly: SEC; purified ARO AldDh on analytical Superdex 200 10/300 GL in Buffer E (10 mM Tris-HCl pH 8.0, 0.5 M NaCl, 0.2 mM NAD+, 1 mM DTT, 5% glycerol); oligomer of the enzyme with itself. In general terms: In gel filtration, larger molecules generally elute earlier.

For series [2], the target named is ARO dioxygenase beta subunit (2-aminophenol-1,6-dioxygenase beta subunit) from Micromonospora rosaria, His-tagged (Micromonospora rosaria). The series is described as follows: crystal structure; ARO dioxygenase, sitting drop vapor diffusion at room temperature; 0.1 M Tris pH 8.0, 0.5 M ammonium, 28% PEG 8000; 1.75 Å, P1 cell.
For series [3], the target named is T1, ARO AldDh (2-aminomuconic-6-semialdehyde dehydrogenase homolog) (Micromonospora rosaria, UniProt A0A136PUC7).
T1 construct: gene AWW66_10300; E. coli BL21(DE3), codon-optimized, untagged (pLD69); ammonium sulfate and HIC enriched; primers imply N-term MTGLWSPTL, C-term VDLS
T1 sequence (A0A136PUC7 1-502): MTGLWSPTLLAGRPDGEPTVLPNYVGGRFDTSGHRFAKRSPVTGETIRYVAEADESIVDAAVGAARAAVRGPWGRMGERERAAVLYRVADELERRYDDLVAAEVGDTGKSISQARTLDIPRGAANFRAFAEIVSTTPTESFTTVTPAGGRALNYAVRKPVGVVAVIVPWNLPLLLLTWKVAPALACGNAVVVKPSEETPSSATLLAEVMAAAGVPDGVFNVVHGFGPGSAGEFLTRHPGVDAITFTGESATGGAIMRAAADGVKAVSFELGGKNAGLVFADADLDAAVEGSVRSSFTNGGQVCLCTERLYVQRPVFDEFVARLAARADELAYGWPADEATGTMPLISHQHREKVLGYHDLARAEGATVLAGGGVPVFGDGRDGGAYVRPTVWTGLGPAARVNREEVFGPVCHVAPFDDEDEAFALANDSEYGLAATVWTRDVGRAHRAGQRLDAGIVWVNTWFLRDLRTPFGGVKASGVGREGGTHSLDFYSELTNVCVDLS
Put plainly: coupled assay, absorption spectra, product 2-aminomuconate at […] nm. The following applies: 2-AMS generated in situ from 0.5 µM 2-AP by ARO dioxygenase; 20 µM NAD+, 100 mM potassium phosphate pH 7.5. Format: biochemical.

Substrate in series [4]: Nc1ccccc1O
The series is described as follows: purified protein. The format is biochemical, Micromonospora rosaria. The following applies: 10 mM sodium phosphate pH 8.0, room temperature, 27 µg enzyme in 1 mL.

Substrate in series [5]: Nc1ccc(Cl)cc1O
Put plainly: purified protein. Format: biochemical, Micromonospora rosaria. The following applies: 10 mM sodium phosphate pH 8.0, room temperature, 27 µg enzyme in 1 mL.

Substrate in series [6]: Oc1ccccc1O
Put plainly: purified protein. Format: biochemical, Micromonospora rosaria. The following applies: 10 mM sodium phosphate pH 8.0, room temperature, 27 µg enzyme in 1 mL.

In the case of “ARO AldDh (ARO 2-aminomuconic-6-semialdehyde dehydrogenase homolog) from Micromonospora rosaria (enzyme)”, in series [1], the stoichiometry N (commonly the number of molecules, sites or subunits per partner or assembly) came out at 3.

Take “ARO dioxygenase beta subunit (2-aminophenol-1,6-dioxygenase beta subunit) from Micromonospora rosaria, His-tagged (natural protein)”: the stoichiometry N in series [2] stood at 2.

Consider `N/C(=C\C=C\C=O)C(=O)O` [2-aminomuconate 6-semialdeyde], for which the “coupled assay, absorption spectra, product 2-aminomuconate at 326 nm” value in series [3] is recorded as “ability to convert 2-aminomuconate 6-semialdeyde (2-AMS) to 2-aminomuconate in vitro”.

B1: ARO dioxygenase (2-aminophenol-1,6-dioxygenase; ARO AmnA and AmnB) (Micromonospora rosaria) (protein)
chain: MSRVFRVPLAPTRGGATTAPRTPAPAPAPTRPGIVAGCLSPHPPHLIYGENPPQNEPRSTGGWETLRWAYERLRARIRDVHKPDVLIVHAPHWITMVGHHVNCVPNPRGLSVEPIFPHLFRYRYDFRTDVELGEAIAEEASGLGLVTRTLRDPRVRVDYATIGALHLANPAWDIPVVSLSANNNPYFYSDASLTEMEVLGEATRLAVEATGRRAVLLASNSLSHLHWHEEPELPEDMEREHPYNNHQYRWDMKLLEAIRRGPTAPLRDLIPEHIEATASETKAGSLTWMLAAMGWPKVAGDVLGYGTIIGTGNAIVEWLPEGSHH
notes: E. coli BL21(DE3) co-expression (codon-optimized; pLD54 alpha, pLD59 beta); beta with C-terminal 6xHis via Gly/Ser linker, tag kept; alpha untagged; 140 kDa dimer of heterodimers; modelled alpha D3-H278, beta T30-G322; iron in beta subunit; primers imply alpha N-term MADRTG, beta N-term MSRVFR; with 2-aminophenol 1,6-dioxygenase alpha subunit
Take B1: the Km – broadly, the substrate concentration at which the rate is half of its maximum – in series [4] came out at 70 µM; in series [5], 29 µM; in series [6], 14 µM.
